Measurements taken from the supplement of paper PMC9170038.

How the values were obtained:
MS2 coat protein [1] = experiment: apparent KD of MS2 coat protein; designed switch direction (-1 OFF switch, 1 ON switch): 1; higher = weaker reporter binding; details: Eterna round: R98
Procedure: (§1)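 RNA-MaP: designed FMN/MS2 RNA switches (84 nt design region) are transcribed on-chip within common flanks and titrated with SNAP-549-labelled MS2 coat protein (about 1-3000 nM) in 100 mM Tris pH 7.5, 80 mM KCl, 4 mM MgCl2, without or with 200 uM FMN. Median apparent KD per design; activation ratio = KD,OFF / KD,ON.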

MS2 coat protein [2] = experiment: apparent KD of MS2 coat protein; designed switch direction (-1 OFF switch, 1 ON switch): -1; higher = weaker reporter binding; details: Eterna round: R98
Procedure: as §1

MS2 coat protein [3] = experiment: apparent KD of MS2 coat protein; higher = weaker reporter binding; details: Eterna round: R101
Procedure: as §1

Sequence | apparent KD of MS2 coat protein (MS2 coat protein [1]; input ligand: FMN 200 uM) [nM] | apparent KD of MS2 coat protein (MS2 coat protein [1]; input ligand: none) [nM] | further results
AAAACAUGAGGAUCACCCAUGUAAAGAUCGGUUAAUAGAAGUGAGGAUAUACUAAAUUUUAGGUAGUAGAAGGCACUGGGUACA [JR_SSNG3_Sub034] | 28.1 | 23.1 | 
AAAUAAAAUAUAGGAUAUGGAAACAUGAGGAUCACCCAUGUAAAAUAAGAUAAAUAAUAAUAUAGCCAGAAGGAUAAAAUAUAA [LRO004_SS NG 2] | 34.5 | 27.6 | 
AGACUCAGAUGGUGCCAGCUUGCACAUGAGGAUCACCCAUGUCAGGAUAUCUUCGCUCCGGGAGAAGAGAAGGGACAAGAAAUU [Anenan] |  |  | apparent KD of MS2 coat protein (MS2 coat protein [2]; input ligand: FMN 200 uM): 165 nM; apparent KD of MS2 coat protein (MS2 coat protein [2]; input ligand: none): 104 nM
CACCGUUACAGAGGAUAUGACACAUGAGGAUCACCCAUGUAAUAAAUGAGAAUUUCGAAUGUAACUCAGAAGGCUGGAAUCGGC [JieuxMod 1 - Jieux - Exclusion NG 2] |  |  | apparent KD of MS2 coat protein (MS2 coat protein [2]; input ligand: FMN 200 uM): 61.6 nM; apparent KD of MS2 coat protein (MS2 coat protein [2]; input ligand: none): 25.9 nM
CCGGGCCCGGGAGGAUAUACAUGAGGAUCACCCAUGUAUUCUCGGCCCGGCGAAAGCCGGGCCAUGUAGAAGGCCCGGGCCCGG [high melting point] |  |  | apparent KD of MS2 coat protein (MS2 coat protein [2]; input ligand: FMN 200 uM): 103 nM; apparent KD of MS2 coat protein (MS2 coat protein [2]; input ligand: none): 24.3 nM
CCUUGAUAAUAUCUUCACAUGAGGAUCACCCAUGUCGCUCGACAGGAUAUAUUUUAUUUGUUUAAGUAGAAGGGUCGCAGAUUC [LRO020_SS NG 3] | 142 | 136 | 
CGAGACACUUGAGGAUAUGCUCAGGAUAACUGAGCAGAAGGCAGGGAAACCUGAGGAUCACCCAGGUAACUGGAAAGUCUCGAA [Same State NG1 - A3C, U17G Submission 5B] | 46.3 | 144 | 
GCAGAAGGUGCGGAGGAUCACCCUGUAAGGAUAUGCAUUAGCAAGGAUAUACAGAGGAUCACCCUGUAGAAGGUGCACUAUUCU [pwkr2 ssNG3 DX.4] | 1230 | 1450 | 
GCGGGAUGAGUCGUUGGUUCACAUGAGGAUCACCCAUGUAGGGAGGAUAUGCAUCUGGUCCCGGAGCAGAAGGCCCUGCAUCGA [Raedxea] |  |  | apparent KD of MS2 coat protein (MS2 coat protein [2]; input ligand: FMN 200 uM): 1540 nM; apparent KD of MS2 coat protein (MS2 coat protein [2]; input ligand: none): 555 nM
GCUGCUAUCGCAGGAUAUUACAUGGGAAAUAAUACAUGAGGAUCACCCAUGUAAAAUAUCGUAAAUAAGAAGGGCGAUAGCAGC [Lame State 4 - Jieux - Same State NG 2] | 239 | 1210 | 
GCUUGCGACGAAGGAUAUGGGUGCCUAAACACGAGGAUCACCCGUGUACAGGAAGCUAAAUGCUCUCAGAAGGUCGUCGCAGGC [United States 10 - Jieux - Same State NG 2] | 18.4 | 36 | 
GGAGACCUCACAGGAUAUGCUGGACUUUGUCCAGCAGAAGGGUGAACAUGAGGAUCACCCAUGUAAAUGGUCUCCAAAUUUAAU [Denovo 55] | 33.4 | 389 | 
GGAGGUCACAUUUACAUGAGGAUCACCCAUGUCGAAAGACAUGAGGAUAUGCUACCUAAUUGGUAGCAGAAGGCAUGGACCUCC [Mat - Same State NG 3 - JL Mod - D28] | 226 | 287 | 
GUACGGAUCAUAGGAUAUCUGCCGGCCGGAGUUAGAGAAGGGUGAUCUAGGAUGCCACAUGAGGAUCACCCAUGUCAACAUCGC [Vemati] | 20.9 | 24.2 | 
GUCAGGAAUGUAGGAUAUCGUCAGGAAUACUGGCGAGAAGGACAUGAGGAUCACCCAUGUAAAAUGAAAGAUAAUAAACCUGGC [Exclsuion NG 1/2-C1] |  |  | apparent KD of MS2 coat protein (MS2 coat protein [2]; input ligand: FMN 200 uM): 31.9 nM; apparent KD of MS2 coat protein (MS2 coat protein [2]; input ligand: none): 18.7 nM
GUGCGAGCCACAGGAUAUCUACAGAUUUUUUGUAGAGAAGGGUGACCUCGUGCACCACAUGAGGAUCACCCAUGUAACUAGGCG [Bianeren] | 24.5 | 82.1 | 
UAUUAAAGGUGAGGAUAUGCACAGGAUCACCGUGUAGAAGGCAUCAGGUAGAAGGUGCAGAGGAUCACCCUGUAAGGAUAUAUC [pwkr2 ssNG1 DX.10] | 191 | 1080 | 
UCAGUAGAGUCAGGAUAUACAAAAGGCGGUCCAUACAUGAGGAUCACCCAUGUAGAAGGGACUCUACUGUAAGUCGGAAACGAC [#StaticStemDeletion - Eli x2 4.005] (puzzle (switch architecture): Small Loop Exclusion NG 1) |  |  | apparent KD of MS2 coat protein (MS2 coat protein [3]; input ligand: FMN 200 uM): 15.6 nM; apparent KD of MS2 coat protein (MS2 coat protein [3]; input ligand: none): 329 nM
UCGAACGGAAACAAAGUCAAUAGACAUGAGGAUCACCCAUGUAAGGAUAUGCCUACUAAAAGUAGGCAGAAGGUACGCGUUCGA [Contusion 5 - Jieux - Exclusion NG 3] |  |  | apparent KD of MS2 coat protein (MS2 coat protein [2]; input ligand: FMN 200 uM): 27.2 nM; apparent KD of MS2 coat protein (MS2 coat protein [2]; input ligand: none): 18.3 nM
UCGGUUUUCGCAGGAUAUGGAGGAUAUUCCCACAUGAGCAUCAGCCAUGUCUGCAUGGAAGAAGGCCAGAAGGGCGAGAACCGA [United States 1 - Jieux - Same State NG 2] | 11.1 | 13.6 | 
UGAUCGCUUGGAGGAUAUCCAACUAUCCUAGUUGGAGAAGGCCAAGCUACAGAGCUAAGCUUGGAAGUCACUUCCGAUCAACAC [pwkr ssNG1 F9.4.2] | 54.9 | 33.6 | 
UUAUAAAAUAUAGGAUAUGGAAACAUGAGGAUCACCCAUGUAUGAUAAGAUAAAUUAUGAUAUAGCCAGAAGGAUACAAUAUAU [LRO011_SS NG 2] | 28.9 | 28 | 
UUAUAAUUAAGAGGAUAUAUACAACAUGAGGAUCACCCAUGUACCCAUGUAGUAGAAGGCUUAUUUUUAUAUAAUAAUAUAAUU [AstrosLoopssng1#9] (puzzle (switch architecture): Small Loop Same State NG 1) |  |  | apparent KD of MS2 coat protein (MS2 coat protein [3]; input ligand: FMN 200 uM): 40 nM; apparent KD of MS2 coat protein (MS2 coat protein [3]; input ligand: none): 148 nM
UUAUUAUGUGUAGGAUAUGCGUAUUAUUAUUAUGCAGAAGGACAUGAGGAUCACCCAUGUAUAUUAUUAUUAUAUAUUAUAUAU (puzzle (switch architecture): Exclusion NG 1) |  |  | apparent KD of MS2 coat protein (MS2 coat protein [3]; input ligand: FMN 200 uM): 19.1 nM; apparent KD of MS2 coat protein (MS2 coat protein [3]; input ligand: none): 14.7 nM
UUUUUAUUUAUAGGAUAUGGAGACAUGAGGAUCACCCAUGUAUGAUAAGAUAAAUUAUGAUGUGGCCAGAAGGAUAUUAUUUUU [LRO018_SS NG 2] | 85.5 | 76.4 | 
